Assay results from patent publication US20220204610A1, “PROTEIN BINDERS FOR IRHOM2” (NEW YORK SOCIETY FOR THE RELIEF OF THE RUPTURED AND …, priority 2019, published 2022).

Experiments:
[1] = test system: LPS-induced release of endogenous TNFα from human THP-1 macrophage cells; test: ELISA-based TNFα release assay with purified antibody (Example 11); assay type: cell-based; settings: antibody at 10 μg/ml final; LPS 50 ng/ml, 2 hours
Experimental: In the following study, ELISA-based TNFα release assays were performed to verify the inhibitory effects of the purified antibody 4H8-E3 of the invention on LPS-induced release of endogenous TNFα from human THP-1 macrophage cells.
In brief, on day 1, Nunc black MaxiSorp® 96-well plates (Thermo Fisher Scientific, USA) were coated overnight with 100 μl per well of mouse anti-human TNFα capture antibody (provided as part of the DuoSet ELISA kit) at 4 μg/ml TBS at 4° C. On day 2, the capture antibody solution was removed and MaxiSorp® plates were blocked with 300 μl per well of TBS, 1% BSA at room temperature for 3 hours. […] Using an infinite M1000 PRO (Tecan Group, Switzerland) microplate reader, the fluorescence of each well was collected at an excitation wavelength of 435 nm and an emission wavelength of 555 nm.

[2] = molecular target: T1, human iRhom2 (Homo sapiens, UniProt Q6PJF5); test: Peptide binding ELISA, target region determination (Example 9); settings: antibody 3 μg/ml; peptide coated at 10 μg/ml; normalized to IgM isotype control
T1 construct: made in house; host or cells: chemical synthesis (Fmoc solid phase peptide synthesis), no expression host
T1 sequence (Q6PJF5 431-459): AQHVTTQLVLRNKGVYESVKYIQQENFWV
Experimental: (§1) Next, peptide binding ELISA analyses were performed to verify whether the purified antibody 4H8-E3 of the invention recognizes any of the peptides that were administered to those animals the hybridoma clone 4H8 was derived from, thereby shedding light on the target region being recognized by the antibody 4H8-E3 of the invention.
(§2) In brief, on day 1, Nunc black MaxiSorp® 96-well plates (Thermo Fisher Scientific, USA) were coated overnight with 100 μl per well of single biotinylated peptides 1 to 11 as well as mixes of peptides 1 to 4 (Mix A), 5 to 7 (Mix B), and 8 to 11 (Mix C) at 10 μg/ml TBS each (thus, the final concentration of each peptide in mixes 1 to 4 and 8 to 11 was 2.5 μg/ml versus 3.3 μg/ml in mix 5 to 7) at 4° C. On day 2, peptide solutions were removed and MaxiSorp® plates were blocked with 300 μl per well of Pierce protein-free (TBS) blocking buffer (Thermo Fisher Scientific, USA) at room temperature for 1.5 hours. The blocking buffer was then removed and plates were washed 4 times with 350 μl per well of TBS-T (Carl Roth, Germany) on a 96-head plate washer (Tecan Group, Switzerland). Afterwards, 100 μl per well of TBS as blank control, mouse anti-biotin antibody (clone BN-34, Sigma-Aldrich, USA) at 0.3 μg/ml TBS as coating control, the purified antibody 4H8-E3 of the invention at 3 μg/ml TBS, and mouse IgM antibody (clone MOPC 104E, Sigma-Aldrich, USA) as isotype control to the purified antibody 4H8-E3 of the invention at 3 μg/ml TBS were added to wells pre-coated with single peptides 1 to 11 or respective mixes and incubated at room temperature for 4 hours. Subsequently, the plates were washed 4 times with 350 μl per well of TBS-T (Carl Roth, Germany) on a 96-head plate washer (Tecan Group, Switzerland) again and, protected from direct light, were incubated with 100 μl per well of AP-conjugated goat anti mouse IgG/IgG/IgM F(ab′)2 fragment (Sigma-Aldrich, USA) diluted 1:2,000 in TBS for 1 hour at room temperature. Following another round of 4 washing steps with 350 μl per well of TBS-T (Carl Roth, Germany) on a 96-head plate washer (Tecan Group, Switzerland) and careful removal of all buffer traces after the fourth cycle, 100 μl of AttoPhos substrate solution (Promega, USA) were added for incubation in the dark and at room temperature for 1 hour. Using an infinite M1000 PRO (Tecan Group, Switzerland) microplate reader, the fluorescence of each well was collected at an excitation wavelength of 435 nm and an emission wavelength of 555 nm.

[3] = test system: human iRhom2; test: as above; settings: antibody 3 μg/ml, normalized to IgM isotype control
Experimental: as §1, §2

[4] = peptides coated individually or as mix

B1: 4H8-E3: Mouse IgM monoclonal antibody against the human iRhom2 juxtamembrane domain adjacent to TMD1; HC VD SEQ ID NO 33, LC VD SEQ ID NO 40 (antibody, V domains shown)
VH: EVQLQQSGPELVKPGASVKISCKASGYTFTDYYMNWVKQSHGKSLEWIGDINPNNGGTSYNQKFKGKATLTVDKSSNTAYMEFRSLTSEDSAVYYCARRGYYGVDYWGQGTTLTVSS
VL: NIVMTQSPKSMSMSVGERVTLNCKASENVGTYVSWYQQKPEQSPKLLIFGASNRYTGVPDRFIGSGFATDFTLTISSVQAEDLADYHCGQSYSYPYTFGGGTKLEIK
modifications: IgM constant regions; antibody sequence
inhibition of LPS-induced release of TNFα from THP-1 cells [1]: 62.6% | binding to single peptide 3 (amino acids 431 to 459 of human iRhom2 juxtamembrane domain) [2]: strong binding | binding to Mix A consisting of peptides 1, 2, 3 and 4 ([3]; biotinylated peptides coated at 10 μg/ml): strong binding | binding to peptides 5, 6 and 7 (large extracellular loop) [3, 4]: no binding | binding to peptides 8, 9, 10 and 11 (C-terminal tail of human iRhom2) [3, 4]: no binding
